Measurements from patent publication US20240158497A1 (published 2024).

T1: human gp130 expressed endogenously on IMR-32/Stat3-luc cells (human, UniProt P40189 23-918)
T1 sequence: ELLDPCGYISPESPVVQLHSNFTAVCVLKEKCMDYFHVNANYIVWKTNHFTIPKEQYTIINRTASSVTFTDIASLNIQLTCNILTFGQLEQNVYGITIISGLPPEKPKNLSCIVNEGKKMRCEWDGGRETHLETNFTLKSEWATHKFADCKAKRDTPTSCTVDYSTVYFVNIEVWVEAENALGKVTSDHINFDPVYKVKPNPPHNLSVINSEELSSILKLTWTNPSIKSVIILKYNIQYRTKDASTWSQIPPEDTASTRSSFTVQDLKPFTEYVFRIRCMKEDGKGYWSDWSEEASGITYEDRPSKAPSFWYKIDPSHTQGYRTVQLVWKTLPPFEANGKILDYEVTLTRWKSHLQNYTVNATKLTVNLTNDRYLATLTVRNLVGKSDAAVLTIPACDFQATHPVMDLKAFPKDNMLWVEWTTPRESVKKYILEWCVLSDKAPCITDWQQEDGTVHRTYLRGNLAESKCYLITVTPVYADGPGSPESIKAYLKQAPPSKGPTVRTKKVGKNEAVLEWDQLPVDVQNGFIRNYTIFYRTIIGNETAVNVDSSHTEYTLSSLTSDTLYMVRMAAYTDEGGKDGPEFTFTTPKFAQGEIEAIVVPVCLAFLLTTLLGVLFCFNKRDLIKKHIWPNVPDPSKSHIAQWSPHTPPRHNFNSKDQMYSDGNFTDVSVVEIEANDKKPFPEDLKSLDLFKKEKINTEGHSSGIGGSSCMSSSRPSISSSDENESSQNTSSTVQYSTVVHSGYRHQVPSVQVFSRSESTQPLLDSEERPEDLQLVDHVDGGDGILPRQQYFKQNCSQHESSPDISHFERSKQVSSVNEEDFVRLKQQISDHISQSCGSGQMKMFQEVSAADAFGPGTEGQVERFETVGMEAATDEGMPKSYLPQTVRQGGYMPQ

B1: MAb16666 (antibody, V domains shown)
VH: EVQLVESGGGLVQSGGSLRLSCAASGFTFSRYEMNWVRQAPGKGLEWVAYISNTGTTRDYSDSVKGRFTISRDNAKNSLYLQMSSLRVEDTAVYYCVREKFSGTSDWFDPWGQGTLVTVSS
VL: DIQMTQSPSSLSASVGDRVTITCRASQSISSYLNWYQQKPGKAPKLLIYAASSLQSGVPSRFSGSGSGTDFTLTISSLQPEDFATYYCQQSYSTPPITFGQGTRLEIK
notes: hIgG4 isotype control used
B2: MAb16636 (antibody, V domains shown)
VH: QLQLQESGPGLVKPSETLSLICTVSGGSISSNNYYWGWIRQPPGKGLEWIGNLYGSGSTYYNPSLKSRVTISVDTSKNQFSLKLSFVTAADTAVYHCARWDTNGGAFDIWGQGTMVTVSS
VL: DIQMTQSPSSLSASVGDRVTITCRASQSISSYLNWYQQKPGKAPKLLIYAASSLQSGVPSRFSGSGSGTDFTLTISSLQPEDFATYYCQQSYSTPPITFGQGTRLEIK
notes: hIgG4 isotype control used
B3: MAb16623 (antibody, V domains shown)
VH: EVQLVESGGGLVQPGGSLRLSCAASGLTFSSYEMNWVRQAPGKGLEWVSHISSAGSTKYYADSVKGRFTISRDNAKNSLFLQMNSLRAEDTAIYYCAGYNYAYYYFGVDVWGQGTTVTVSS
VL: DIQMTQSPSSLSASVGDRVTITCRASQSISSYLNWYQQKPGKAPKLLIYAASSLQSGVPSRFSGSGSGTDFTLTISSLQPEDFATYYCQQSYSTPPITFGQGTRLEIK
notes: hIgG4 isotype control used
B4: MAb16682 (antibody, V domains shown)
VH: EVQLVESGGGLVQPGGSLRLSCAASGFTFSTYWMNWVRQAPGKGLEWVANIKEDGSEKYYVDSVKGRFTISRDNAKNSLYLQMNSLRAEDTAVYYCAREGFGVVTYIWGQGTMVTVSS
VL: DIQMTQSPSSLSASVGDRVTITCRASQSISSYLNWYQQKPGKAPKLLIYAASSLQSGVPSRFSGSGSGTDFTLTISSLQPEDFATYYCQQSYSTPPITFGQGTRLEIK
notes: hIgG4 isotype control used
B5: MAb16618 (antibody, V domains shown)
VH: QVQLQESGPGLVKPSETLSLTCTVSGGSISNYYWTWIRQPPGKGLEWIGHISNSGTTNYNPSLKSRVTISVDTSKNQFSLKLTSVTAADTAVYYCARLPLGIAAVDTDYYYYFGMDVWGQGTTVTVSS
VL: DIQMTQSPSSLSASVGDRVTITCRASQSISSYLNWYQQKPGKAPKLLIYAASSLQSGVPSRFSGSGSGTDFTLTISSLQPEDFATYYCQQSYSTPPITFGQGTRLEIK
notes: hIgG4 isotype control used
B6: MAb16673 (antibody, V domains shown)
VH: EVQLVQSGAEVKKPGESLKISCKGSGYSFTSYWIDWVRQMPGKGLEWMGIIYPDDSDTRYSPSFQGQVTMSVDKSISTAYLQWSSLKASDTAIYYCARHERGIVEAGTDYYYYYGMDVWGQGTTVTVSS
VL: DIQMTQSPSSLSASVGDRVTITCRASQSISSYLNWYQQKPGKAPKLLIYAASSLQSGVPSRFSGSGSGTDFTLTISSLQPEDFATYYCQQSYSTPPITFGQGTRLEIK
notes: hIgG4 isotype control used
B7: MAb16614 (antibody, V domains shown)
VH: QVQLVESGGGVVQPGGSLRLSCAASGFTFSTYDIHWVRQAPGKGLEWVAVISFDGSNRNYGDSVKGRFTISRDNSDNTLFLEMNNLRFEDTAVYYCAKEGYGVDFQHWGQGTLVTVSS
VL: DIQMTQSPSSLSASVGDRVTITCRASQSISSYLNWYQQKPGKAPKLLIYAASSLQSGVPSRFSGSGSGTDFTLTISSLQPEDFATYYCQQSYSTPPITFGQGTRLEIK
notes: hIgG4 isotype control used

Target: T1, human gp130 expressed endogenously on …
Test: cell-based or functional assay

Binder | % inhibition; CNTF (20 pM) [%] | IC50 [M]; CNTF (20 pM) [M] | % inhibition; LIF (20 pM) [%] | % inhibition; OSM (100 pM) [%] | IC50 [M]; LIF (20 pM) [M] | IC50 [M]; OSM (100 pM) [M]
B1 | 95 | 7.1e-10 | – | – | – | –
B2 | 62 | > 1e-08 | 76 | 82 | > 1e-08 | > 1e-08
B3 | 22 | > 1e-07 | – | – | – | –
B4 | – | – | – | 23 | – | > 1e-07
B5 | 33 | > 1e-07 | 40 | 52 | > 1e-07 | > 5e-08
B6 | 46 | > 1e-07 | 52 | 62 | 9e-09 | > 5e-08

Target: T2, human GP130 delta D1 with C-terminal myc-myc hexahistidine tag (human, UniProt P40189 124-619)
T2 construct: used as CHO supernatant; also called human GP130 delta D1-MMH; GP130 Delta D1 extracellular domain
T2 sequence (P40189 other isoform, or with tags, fused parts or gaps mutant limits assumed): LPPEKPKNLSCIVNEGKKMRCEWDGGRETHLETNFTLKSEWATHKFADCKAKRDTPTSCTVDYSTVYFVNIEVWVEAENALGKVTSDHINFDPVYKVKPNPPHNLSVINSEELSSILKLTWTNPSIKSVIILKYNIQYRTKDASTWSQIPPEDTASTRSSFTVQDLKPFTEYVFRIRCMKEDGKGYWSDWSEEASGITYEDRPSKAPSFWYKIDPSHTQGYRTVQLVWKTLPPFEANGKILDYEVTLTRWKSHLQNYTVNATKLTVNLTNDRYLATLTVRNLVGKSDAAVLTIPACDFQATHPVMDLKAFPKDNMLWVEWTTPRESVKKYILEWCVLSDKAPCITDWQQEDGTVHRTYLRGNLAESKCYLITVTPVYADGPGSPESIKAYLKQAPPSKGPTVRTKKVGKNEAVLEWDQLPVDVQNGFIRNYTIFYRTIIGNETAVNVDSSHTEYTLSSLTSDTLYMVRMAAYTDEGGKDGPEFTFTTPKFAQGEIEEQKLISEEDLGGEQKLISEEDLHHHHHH
Test: Luminex, antigen captured on anti-myc beads
Experimental: (§1) Aliquots of microspheres with immobilized anti-myc monoclonal antibodies, prepared as described above, were added individually to 1 mL of the each of these protein supernatants and to 500 uL of purified GP130 protein. The microspheres were gently mixed, incubated for two hours at 25° C., washed twice with 1 mL of DBPS, centrifuged to remove the supernatant and finally resuspended in 1 mL of DPBS buffer. Forty eight μL of anti-myc IgG coupled microspheres from individual reactions with full length human GP130 and with each of the human GP130 domain proteins were withdrawn and mixed together in 3.6 mL of PBS+20 mg/mL BSA+0.05% sodium azide (blocking buffer).
(§2) From this mixed pool, 75 μL of microspheres were plated per well on a 96 well filter plate (Millipore, Cat. No: MSBVN1250) and mixed with 25 μL of individual anti-human GP130 monoclonal antibodies (0.5 or 5 μg/mL), incubated for two hours at 25° C. and then washed twice with 200 μL of DPBS with 0.05% Tween 20 (washing buffer). To detect and quantify the amounts of bound anti-GP130 antibody levels to individual microspheres, either 100 μL of 2.5 μg/mL R-Phycoerythrin conjugated goat F(ab′)2 anti-human kappa (Southern Biotech, Cat #2063-09) in blocking buffer, was added and incubated for 30 minutes at 25° C. After 30 minutes, the samples were washed twice with 200 μL of washing buffer and resuspended in 150 μL of wash buffer. The Median Fluorescence intensity (MFI) of the microspheres was measured in a Luminex Analyzer.

Binder | Luminex MFI signal [MFI]
B1 | 7280
B2 | 4260
B3 | 12600
B4 | 1380
B5 | 2630
B7 | 2900
B6 | 2340

Target: T3, human GP130 full length extracellular domain with C-terminal myc-myc-hexahistidine tag (human, UniProt P40189 23-619)
T3 construct: Monomeric; also called human GP130-MMH; hGP130-mmH
Test: Luminex, antigen captured on anti-myc beads
Experimental: as §1, §2

Binder | Luminex MFI signal [MFI]
B1 | 16700
B2 | 17600
B3 | 17600
B4 | 13800
B5 | 19000
B7 | 18700
B6 | 15100

Target: T4, human GP130 delta D1-D3 with C-terminal myc-myc hexahistidine tag (human, UniProt P40189 329-619)
T4 construct: used as CHO supernatant; also called human GP130 delta D1-D3-MMH; GP130 Delta D1-D3 extracellular domain
T4 sequence (P40189 other isoform, or with tags, fused parts or gaps mutant limits assumed): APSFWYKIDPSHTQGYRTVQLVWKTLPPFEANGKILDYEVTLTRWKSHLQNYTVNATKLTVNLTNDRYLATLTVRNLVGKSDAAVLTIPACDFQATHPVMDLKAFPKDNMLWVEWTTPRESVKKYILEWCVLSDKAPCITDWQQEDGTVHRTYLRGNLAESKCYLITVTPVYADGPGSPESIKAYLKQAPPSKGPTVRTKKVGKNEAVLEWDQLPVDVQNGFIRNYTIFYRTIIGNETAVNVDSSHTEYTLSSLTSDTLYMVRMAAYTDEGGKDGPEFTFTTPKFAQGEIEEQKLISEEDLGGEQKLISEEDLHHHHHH
Test: Luminex, antigen captured on anti-myc beads
Experimental: as §1, §2

Binder | Luminex MFI signal [MFI]
B1 | 319
B2 | 1070
B3 | 16000
B4 | 13
B5 | 19
B7 | 56
B6 | 33

Target: T1, human gp130 expressed endogenously on …
Test: FACS, 10 nM Ab, IMR-32/Stat3-luc cells, no hGP130.mmh
Description: In order to assess cell binding by anti-GP130 antibodies of the invention two cell lines were generated. One cell line generated was HEK293 cells stably over-expressing full length (FL) human gp130 (amino acids 1-918 of accession #P40189 with leucine at position 2 changed to valine, a natural variant) along with a luciferase reporter (Stat3-luciferase, Stat3-luc, SA Bioscience, #CLS-6028L). The cells were sorted twice using flow cytometry for high expression of gp130. It is known hereafter as HEK293/Stat3-luc/gp130-2 X Sort. IMR-32 cells (human Neuroblastoma, ATCC), were also evaluated for cell binding as these cells express gp130 endogenously and were used for bioassays. The cells used for binding were generated to stably express a luciferase reporter (Stat3-luciferase, Stat3-luc, SA Bioscience, #CLS-6028L), and are referred to hereafter as IMR-32/STAT3-Luc cells.
For the FACS analysis, 10 nM of the antibodies were used to stain 0.5×10⁶ cells/well of each cell type at 4° C. in PBS (without calcium and magnesium) containing 2% FBS for 30 minutes. IMR-32/STAT3-luc cells were incubated with 1 mg/mL mouse IgG for 30 minutes at 4° C. to block Fc receptors prior to adding the antibodies. To test whether the anti-gp130 antibody binding is specific for gp130 on the IMR-32 cells, antibodies were added to IMR-32/Stat3-luc cells with or without being pre-bound to 1000 nM of recombinant protein of the ecto-domain of human gp130 fused to myc-myc-his tag (hgp130.mmh) for 30 minutes at 25° C. […] Cells were fixed using BD CytoFix™ (Becton Dickinson, #554655) and analyzed on an IQue® (Intellicyt®) Flow Cytometer. Unstained and secondary antibody alone controls were also tested for all cell lines. The results were analyzed using ForeCyt® (IntelliCyt®) software to determine the geometric means of fluorescence for viable cells.

Binder | MFI - Normalized to Unstained Control [ratio]
B1 | 23
B2 | 8
B3 | 8
B4 | 6
B5 | 7
B7 | 7
B6 | 10
